Consider one molecule from US20200377579A1 (Biogen, published 2020).

In assay [1] the target is T1, aggregated α-synuclein (human, UniProt P37840 1-140). Kind of assay: in vitro binding, method not stated; estimated from binding constants.
The target in assay [2] is T1, aggregated α-synuclein. Kind of assay: in vitro binding, method not stated; same EC50 in mass units.

B1: BIIB054 (antibody, human IgG1, lambda, V domains shown)
VH: EVQLVESGGGLVEPGGSLRLSCAVSGFDFEKAWMSWVRQAPGQGLQWVARIKSTADGGTTSYAAPVEGRFIISRDDSRNMLYLQMNSLKTEDTAVYYCTSAHWGQGTLVTVSS
VL: SYELTQPPSVSVSPGQTARITCSGEALPMQFAHWYQQRPGKAPVIVVYKDSERPSGVPERFSGSSSGTTATLTITGVQAEDEADYYCQSPDSTNTYEVFGGGTKLTVLS
notes: Fully human IgG1/lambda monoclonal antibody; also called anti-α-synuclein antibody
With B1, the results for the EC50 with aggregated α-synuclein [1] and in the assay with aggregated α-synuclein [2] were about 0.25 nM and about 0.0375 µg/mL, respectively.
